These results are taken from paper PMC11948756, “The molecular properties of the bHLH TCF4 protein as an intrinsically disordered hub transcription factor” (Cell Communication and Signaling : CCS, 2025).

The series deals with the molecule itself. The experiment in a line: native gel or EMSA + SEC + AUC; free TCF4 and TCF4 with E-box dsDNA; buffer S (20 mM Tris-HCl, 150 mM NaCl, 2 mM TCEP, pH 7.5); SV-AUC at 20 °C, 2.5, 5.0 and 7.5 µM dTCF4, molecular weight fixed at that of the dimer (96.5 kDa); SEC on Superdex 200 Increase 10/300; native PAGE on 5% gel in 0.5 x TBE at 4 °C. Background: In EMSA bound probe runs differently from free probe, usually more slowly.

B1: Transcription factor 4 (TCF4), human isoform I- (natural protein, UniProt P15884-16 1-451, looked up)
chain: MQDGHHSSDPWSSSSGMNQPGYAGMLGNSSHIPQSSSYCSLHPHERLSYPSHSSADINSSLPPMSTFHRSGTNHYSTSSCTPPANGTDSIMANRGSGAAGSSQTGDALGKALASIYSPDHTNNSFSSNPSTPVGSPPSLSAGTAVWSRNGGQASSSPNYEGPLHSLQSRIEDRLERLDDAIHVLRNHAVGPSTAMPGGHGDMHGIIGPSHNGAMGGLGSGYGTGLLSANRHSLMVGTHREDGVALRGSHSLLPNQVPVPQLPVQSATSPDLNPPQDPYRGMPPGLQGQSVSSGSSEIKSDDEGDENLQDTKSSEDKKLDDDKKDIKSITSNNDDEDLTPEQKAEREKERRMANNARERLRVRDINEAFKELGRMVQLHLKSDKPQTKLLILHQAVAVILSLEQQVRERNLNPKAACLKRREEEKVSSEPPPLSLAGPHPGMGDASNHMGQM
notes: Transcription factor 4 (TCF4), human, isoform I- (UniProt P15884-16), full length; lacks amino acids 1-216 of the canonical isoform B- (P15884-1); bHLH domain at residues 348-401; dimer 96.5 kDa; numbers count on: isoform I- (P15884-16); cDNA synthesised and codon-optimised, cloned into pET-SUMO; also called TCF4 I-; dTCF4 (dimeric TCF4); source: E. coli ArcticExpress, purified (Ni-NTA with 6 M …)
Consider B1, for which the binding result is “binds”.
